In US20260201015A1 (published 2026):

T1: parathyroid hormone (PTH) peptide (UniProt P01270 32-65, TAMRA label in FP assays (PTH-TAMRA), site not stated; biotinylated in yeast display)
T1 peptide: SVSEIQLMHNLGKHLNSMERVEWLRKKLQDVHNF

T2: secretin (SCT) (UniProt P09683 28-54, fluorescently labeled (FAM or TAMRA) in FP assays, site not stated)
T2 peptide: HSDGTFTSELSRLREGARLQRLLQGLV

B1: parametrically designed PTH binder (SEQ ID NO: 1) (designed binder)
chain: SQELIEELIKLAKELAEIKDEEERRKIKRELERLAEELKEAPASSLLRALALLVIALALIQAAESEEERERARELLERLEELLRELEKQITDERFKEILRELEELAKELKKQL
B2: GCG_C09 (RF Diffusion/Partial diffusion), partially diffused GCG binder, SEQ ID NO: 8 (designed binder)
chain: SMEKLAEIMQEIIEAYQEVKDAFFKFIKAVHEGAPEEELKKYLEKMKEALEKMKELLERLEKEAKKVIEENKDKKLELKVLLMLRLAYLLLKVSIELTKIAAEKLGDKELVEELEKESKEVEKKIKELEERIKKLLEEVDDEELKEAYKEVEEMEKEAEKFLEKMRKV

Tests used:
[1] = target: T1, parathyroid hormone (PTH) peptide; experiment: Split NanoBiT titration
secretin (SCT) = target: T2, secretin (SCT); experiment: FP
glucagon (GCG) = glucagon (GCG) (UniProt P01275 53-81, fluorescently labeled (FAM or TAMRA) in FP assays, site not stated; biotinylated in yeast display); experiment: FP
glucagon (GCG), sequence (P01275 53-81): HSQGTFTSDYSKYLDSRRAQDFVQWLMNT

Binder | Kd [1] [nM] | Kd (secretin (SCT)) [nM] | Kd (glucagon (GCG)) [nM]
B1 | > 1000 | – | –
B2 | – | 1.42 | < 0.5
